Experimental data reported in patent US20210261668A1 (DRAGONFLY THERAPEUTICS, published 2021).

T1: human NKG2D-Fc fusion protein (human, UniProt P26718 73-216)
T1 construct: extracellular domain; also called recombinant human NKG2D-Fc; human recombinant NKG2D; not shown: human IgG1 Fc domain
T1 sequence (looked up): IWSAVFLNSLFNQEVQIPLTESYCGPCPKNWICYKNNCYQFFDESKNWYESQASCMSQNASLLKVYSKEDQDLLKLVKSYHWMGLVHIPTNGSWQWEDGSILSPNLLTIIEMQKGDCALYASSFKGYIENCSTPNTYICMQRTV

T2: cynomolgus NKG2D-Fc fusion protein (cynomolgus; human, UniProt P61252 73-216)
T2 construct: extracellular domain; also called cynomolgus recombinant NKG2D-Fc; cynomolgus recombinant NKG2D; not shown: human IgG1 Fc domain
T2 sequence (looked up): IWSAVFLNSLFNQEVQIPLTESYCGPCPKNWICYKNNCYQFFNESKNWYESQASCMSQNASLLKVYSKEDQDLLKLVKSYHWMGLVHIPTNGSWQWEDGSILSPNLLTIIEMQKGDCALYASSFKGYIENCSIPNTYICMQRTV

T3: mouse NKG2D-Fc fusion protein (mouse; human, UniProt O54709 90-232)
T3 construct: extracellular domain; also called mouse recombinant NKG2D-Fc; recombinant mouse NKG2D-Fc; not shown: human IgG1 Fc domain
T3 sequence (looked up): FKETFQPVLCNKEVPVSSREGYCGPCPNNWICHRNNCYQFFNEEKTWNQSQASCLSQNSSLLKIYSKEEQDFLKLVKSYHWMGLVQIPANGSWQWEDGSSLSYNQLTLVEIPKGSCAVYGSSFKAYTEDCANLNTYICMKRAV


Legend:
Test in all cases: ELISA on coated NKG2D-Fc
[1] = target: T1, human NKG2D-Fc fusion protein
[2] = target: T2, cynomolgus NKG2D-Fc fusion protein
[3] = target: T3, mouse NKG2D-Fc fusion protein

Binder	binding result [1]	binding result [2]	binding result [3]
ADI-27705 (antibody, V domains shown) VH: QVQLQQWGAGLLKPSETLSLTCAVYGGSFSGYYWSWIRQPPGKGLEWIGEIDHSGSTNYNPSLKSRVTISVDTSKNQFSLKLSSVTAADTAVYYCARARGPWSFDPWGQGTLVTVSS VL: not shown	binds	binds	binds
ADI-29403 (antibody, V domains shown) VH: QVQLQQWGAGLLKPSETLSLTCAVYGGSFSGYYWSWIRQPPGKGLEWIGEIDHSGSTNYNPSLKSRVTISVDTSKNQFSLKLSSVTAADTAVYYCARARGPWSFDPWGQGTLVTVSS VL: not shown	binds	binds	binds
ADI-29421 (antibody, V domains shown) VH: QVQLQQWGAGLLKPSETLSLTCAVYGGSFSGYYWSWIRQPPGKGLEWIGEIDHSGSTNYNPSLKSRVTISVDTSKNQFSLKLSSVTAADTAVYYCARARGPWSFDPWGQGTLVTVSS VL: not shown	binds	binds	binds
ADI-27740 (antibody, V domains shown, also called A40) VH: QVQLQQWGAGLLKPSETLSLTCAVYGGSFSGYYWSWIRQPPGKGLEWIGEIDHSGSTNYNPSLKSRVTISVDTSKNQFSLKLSSVTAADTAVYYCARARGPWSFDPWGQGTLVTVSS VL: DIQMTQSPSTLSASVGDRVTITCRASQSIGSWLAWYQQKPGKAPKLLIYKASSLESGVPSRFSGSGSGTEFTLTISSLQPDDFATYYCQQYHSFYTFGGGTKVEIK	binds	binds	binds
ADI-27741 (antibody, V domains shown) VH: QVQLQQWGAGLLKPSETLSLTCAVYGGSFSGYYWSWIRQPPGKGLEWIGEIDHSGSTNYNPSLKSRVTISVDTSKNQFSLKLSSVTAADTAVYYCARARGPWSFDPWGQGTLVTVSS VL: DIQMTQSPSTLSASVGDRVTITCRASQSIGSWLAWYQQKPGKAPKLLIYKASSLESGVPSRFSGSGSGTEFTLTISSLQPDDFATYYCQQSNSYYTFGGGTKVEIK	binds	binds	binds
ADI-29407 (antibody, V domains shown) VH: QVQLQQWGAGLLKPSETLSLTCAVYGGSFSGYYWSWIRQPPGKGLEWIGEIDHSGSTNYNPSLKSRVTISVDTSKNQFSLKLSSVTAADTAVYYCARARGPWSFDPWGQGTLVTVSS VL: DIQMTQSPSTLSASVGDRVTITCRASQSISSWLAWYQQKPGKAPKLLIYKASSLESGVPSRFSGSGSGTEFTLTISSLQPDDFATYYCQQYQSFPTFGGGTKVEIK	binds	binds	binds
ADI-29405 (antibody, V domains shown) VH: QVQLQQWGAGLLKPSETLSLTCAVYGGSFSGYYWSWIRQPPGKGLEWIGEIDHSGSTNYNPSLKSRVTISVDTSKNQFSLKLSSVTAADTAVYYCARARGPWSFDPWGQGTLVTVSS VL: DIQMTQSPSTLSASVGDRVTITCRASQSISSWLAWYQQKPGKAPKLLIYKASSLESGVPSRFSGSGSGTEFTLTISSLQPDDFATYYCQQYGSFPTFGGGTKVEIK	binds	binds	binds
ADI-29424 (antibody, V domains shown) VH: QVQLQQWGAGLLKPSETLSLTCAVYGGSFSGYYWSWIRQPPGKGLEWIGEIDHSGSTNYNPSLKSRVTISVDTSKNQFSLKLSSVTAADTAVYYCARARGPWSFDPWGQGTLVTVSS VL: DIQMTQSPSTLSASVGDRVTITCRASQSISSWLAWYQQKPGKAPKLLIYKASSLESGVPSRFSGSGSGTEFTLTISSLQPDDFATYYCQQYDSFITFGGGTKVEIK	binds	binds	binds
ADI-29426 (antibody, V domains shown) VH: QVQLQQWGAGLLKPSETLSLTCAVYGGSFSGYYWSWIRQPPGKGLEWIGEIDHSGSTNYNPSLKSRVTISVDTSKNQFSLKLSSVTAADTAVYYCARARGPWSFDPWGQGTLVTVSS VL: DIQMTQSPSTLSASVGDRVTITCRASQSIGSWLAWYQQKPGKAPKLLIYKASSLESGVPSRFSGSGSGTEFTLTISSLQPDDFATYYCQQYHSFPTFGGGTKVEIK	binds	binds	binds
ADI-27743 (antibody, V domains shown) VH: QVQLQQWGAGLLKPSETLSLTCAVYGGSFSGYYWSWIRQPPGKGLEWIGEIDHSGSTNYNPSLKSRVTISVDTSKNQFSLKLSSVTAADTAVYYCARARGPWSFDPWGQGTLVTVSS VL: not shown	binds	binds	binds
ADI-29404 (antibody, V domains shown, also called F04) VH: QVQLQQWGAGLLKPSETLSLTCAVYGGSFSGYYWSWIRQPPGKGLEWIGEIDHSGSTNYNPSLKSRVTISVDTSKNQFSLKLSSVTAADTAVYYCARARGPWSFDPWGQGTLVTVSS VL: DIQMTQSPSTLSASVGDRVTITCRASQSISSWLAWYQQKPGKAPKLLIYKASSLESGVPSRFSGSGSGTEFTLTISSLQPDDFATYYCEQYDSYPTFGGGTKVEIK	binds	binds	binds
ADI-29419 (antibody, V domains shown) VH: QVQLQQWGAGLLKPSETLSLTCAVYGGSFSGYYWSWIRQPPGKGLEWIGEIDHSGSTNYNPSLKSRVTISVDTSKNQFSLKLSSVTAADTAVYYCARARGPWSFDPWGQGTLVTVSS VL: not shown	binds	binds	binds
ADI-29399 (antibody, V domains shown) VH: QVQLQQWGAGLLKPSETLSLTCAVYGGSFSGYYWSWIRQPPGKGLEWIGEIDHSGSTNYNPSLKSRVTISVDTSKNQFSLKLSSVTAADTAVYYCARARGPWSFDPWGQGTLVTVSS VL: not shown	binds	binds	binds
ADI-28226 (antibody, V domains shown, also called C26) VH: QVQLQQWGAGLLKPSETLSLTCAVYGGSFSGYYWSWIRQPPGKGLEWIGEIDHSGSTNYNPSLKSRVTISVDTSKNQFSLKLSSVTAADTAVYYCARARGPWSFDPWGQGTLVTVSS VL: DIQMTQSPSTLSASVGDRVTITCRASQSISSWLAWYQQKPGKAPKLLIYKASSLESGVPSRFSGSGSGTEFTLTISSLQPDDFATYYCQQYGSFPITFGGGTKVEIK	binds	binds	binds
ADI-29425 (antibody, V domains shown) VH: QVQLQQWGAGLLKPSETLSLTCAVYGGSFSGYYWSWIRQPPGKGLEWIGEIDHSGSTNYNPSLKSRVTISVDTSKNQFSLKLSSVTAADTAVYYCARARGPWSFDPWGQGTLVTVSS VL: not shown	binds	binds	binds
ADI-29401 (antibody, V domains shown) VH: QVQLQQWGAGLLKPSETLSLTCAVYGGSFSGYYWSWIRQPPGKGLEWIGEIDHSGSTNYNPSLKSRVTISVDTSKNQFSLKLSSVTAADTAVYYCARARGPWSFDPWGQGTLVTVSS VL: DIQMTQSPSTLSASVGDRVTITCRASQSIGSWLAWYQQKPGKAPKLLIYKASSLESGVPSRFSGSGSGTEFTLTISSLQPDDFATYYCQQYDIYPTFGGGTKVEIK	binds	binds	binds
ADI-29429 (antibody, V domains shown) VH: QVQLQQWGAGLLKPSETLSLTCAVYGGSFSGYYWSWIRQPPGKGLEWIGEIDHSGSTNYNPSLKSRVTISVDTSKNQFSLKLSSVTAADTAVYYCARARGPWSFDPWGQGTLVTVSS VL: DIQMTQSPSTLSASVGDRVTITCRASQSIGSWLAWYQQKPGKAPKLLIYKASSLESGVPSRFSGSGSGTEFTLTISSLQPDDFATYYCQQYELYSYTFGGGTKVEIK	binds	binds	binds
ADI-27727 (antibody, V domains shown) VH: QVQLVQSGAEVKKPGSSVKVSCKASGGTFSSYAISWVRQAPGQGLEWMGGIIPIFGTANYAQKFQGRVTITADESTSTAYMELSSLRSEDTAVYYCARGDSSIRHAYYYYGMDVWGQGTTVTVSS VL: not shown	binds	binds	binds
ADI-29443 (antibody, V domains shown, also called F43) VH: QLQLQESGPGLVKPSETLSLTCTVSGGSISSSSYYWGWIRQPPGKGLEWIGSIYYSGSTYYNPSLKSRVTISVDTSKNQFSLKLSSVTAADTAVYYCARGSDRFHPYFDYWGQGTLVTVSS VL: EIVLTQSPATLSLSPGERATLSCRASQSVSRYLAWYQQKPGQAPRLLIYDASNRATGIPARFSGSGSGTDFTLTISSLEPEDFAVYYCQQFDTWPPTFGGGTKVEIK	binds	–	binds
